According to patent US20200063100A1 (CRISPR THERAPEUTICS, published 2020):

Target: T1, biotinylated recombinant human BCMA (ACROS Cat# BC7-H82F0) (human, UniProt Q02223 1-54, biotinylated)
T1 construct: Bought reagent; also called biotinylated Human BCMA Protein, ACRO Biosystems; recombinant BCMA protein
T1 sequence (looked up): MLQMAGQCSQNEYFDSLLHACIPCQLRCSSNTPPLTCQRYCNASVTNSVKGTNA
Assay: flow cytometry, CAR T cells stained with biotinylated antigen

B1: anti-BCMA CAR, expressed on gene-edited human T cells (other)
chain: QVQLVQSGAELKKPGASVKVSCKASGNTLTNYVIHWVRQAPGQRLEWMGYILPYNDLTKYSQKFQGRVTITRDKSASTAYMELSSLRSEDTAVYYCTRWDWDGFFDPWGQGTTVTVSSGGGGSGGGGSGGGGSEIVMTQSPATLSVSPGERASISCRASQSLVHSNGNTHLHWYQQRPGQAPRLLIYSVSNRFSEVPARFSGSGSGTDFTLTISSVESEDFAVYYCSQTSHIPYTFGGGTKLEIKSAAAFVPVFLPAKPTTTPAPRPPTPAPTIASQPLSLRPEACRPAAGGAVHTRGLDFACDIYIWAPLAGTCGVLLLSLVITLYCNHRNRKRGRKKLLYIFKQPFMRPVQTTQEEDGCSCRFPEEEEGGCELRVKFSRSADAPAYQQGQNQLYNELNLGRREEYDVLDKRRGRDPEMGGKPRRKNPQEGLYNELQKDKMAEAYSEIGMKGERRRGKGHDGLYQGLSTATKDTYDALHMQALPPR
notes: also called anti-BCMA (4-1BB co-stim) CAR
- binding result: binds
